39 variants from the RNAGym collection of RNA variant scans (doi:10.7554/elife.80360) can be followed below.

First the molecules themselves.
B1: CPEB3 Ribozyme (parent)
chain: GGGGGCCACAGCAGAAGCGUUCACGUCGCGGCCCCUGUCAGAUUCUGGUGAAUCUGCGAAUUCUGCUGU

Variants of B1 are the subject of this data set. The experiment in a line: self-cleavage, relative activity (ratio to wild type); higher = more cleavage; co-transcriptional.
In the case of GGGGGCCCCAGAAGAAGCGUUCACGUCGCGGCCCCUGUCAGAUUCUGGUGAAUCUGCGAAUUCUGCUGU, the self-cleavage came out at 0.637. For the variant GGGGGCCCCAGCAGAAGCGUUCACGUCGCGGCCCCUGUCAGAUUGUGGUGAAUCUGCGAAUUCUGCUGU, the self-cleavage came out at 0.984. To GGGGGCCCCAGCAGAAGCGUUCACGUCGCGGCCCCUGUCAGAUUCUGGUGAAUCUGCGAAUUCUGCUAU belongs 1.02; to GGGGGCCCCAGCAGAAGCGUUCACGUCGCGACCCCUGUCAGAUUCUGGUGAAUCUGCGAAUUCUGCUGU, 0.888; to GGGGGCUACAGCAGAAGCGUUCACGUCGCGGCCCCUGUCAGAUACUGGUGAAUCUGCGAAUUCUGCUGU, 0.881. In the case of GGGGGCUACAGCAGAAGCGUUCACGUCGCGGCCCCUGUCAGAUGCUGGUGAAUCUGCGAAUUCUGCUGU, the self-cleavage is 0.914. To GGGGGCCCCAGCAGAAGCGUUCACGUCGCGGCCCAUGUCAGAUUCUGGUGAAUCUGCGAAUUCUGCUGU belongs 0.374; to GGGGGCCCCAGCAGAAGCGUUCACGUCGCGGCCCCUGUCAGAUUCUGGUGAUUCUGCGAAUUCUGCUGU, 0.962. GGGGGCCCCAGCAGAAGCGUUCACGUCGCGGCCCCUGUCAGAUUCUGGUGAAUCCGCGAAUUCUGCUGU: the self-cleavage was 0.891.

Turning to GGGGGCCCCAGCAGAAGCGUUCACGUCGCGGCCCCUGUCAGAUUCUCGUGAAUCUGCGAAUUCUGCUGU, the self-cleavage was determined as 1.03.

In the case of GGGGGCCCCAGCAGAAGCGUUCACGUCGCGGCCCCUGUCAGAUUCUUGUGAAUCUGCGAAUUCUGCUGU, the self-cleavage worked out at 1.04. Then GGGGGCCCCAGCAGAAGCGUUCACGUCGCGGCCCCUGUCAGAUUCUGGUGAAUCUGCGCAUUCUGCUGU, with 0.725; and GGGGGCCCCAGCAGAAGCGUUCACGUCGCGGCCCCUGUCAGAUUCUGGUAAAUCUGCGAAUUCUGCUGU, with 1.02.

Consider GGGGGCCCCAGCAGAAGCGUUCACGUCGCGGCCCCUGUCAGAUUCUGGUUAAUCUGCGAAUUCUGCUGU, for which the self-cleavage was determined as 1.03. In the case of GGGGGCCCCAGCAGAAGCGUUCACGUCGCGGCCCCUGUCAGAUUCUGGUCAAUCUGCGAAUUCUGCUGU, the self-cleavage turned out to be 0.98. To GGGGGCCCCAGCAGAAGCGUUCACGUCACGGCCCCUGUCAGAUUCUGGUGAAUCUGCGAAUUCUGCUGU belongs 0.215. Then GGGGGCCCCAGCAGAAGCGUUCACUUCGCGGCCCCUGUCAGAUUCUGGUGAAUCUGCGAAUUCUGCUGU, with 0.177. As to GGGGGCUACAGCAGAAGCGUUCACGUCGCGGCCCCUGUCAGAUUCUGGUGAAUCCGCGAAUUCUGCUGU, the self-cleavage was found to be 0.744. As for GGGGGCUACAGCAGAAGCGUUCACGUCGCGGCCCCUGUCAGAUUCUGGUGAAUCGGCGAAUUCUGCUGU, the self-cleavage amounted to 0.706.

GGGGGCCCCAGCAGAAGCGUUCACGUCGCGGCCCCUGUCAGAUUCGGGUGAAUCUGCGAAUUCUGCUGU: the self-cleavage is 0.982. In the case of GGGGGCUACAGCAGAAGCGUUCACGUCGCGGCCCCUGUCAGAUUCUGCUGAAUCUGCGAAUUCUGCUGU, the self-cleavage amounted to 0.949. Then GGGGGCCCCAGCAGAAGCGGUCACGUCGCGGCCCCUGUCAGAUUCUGGUGAAUCUGCGAAUUCUGCUGU, with 0.141; and GGGGGCCCCAGCAGAAGCGUUCACGUCGCGGCCCCUGUCAGAUUCUGGUGCAUCUGCGAAUUCUGCUGU, with 0.981; and GGGGGCCCCAGCAGAAGCGUUCACGUCGCGGCCCCUGUCAGAUUCUGGUGGAUCUGCGAAUUCUGCUGU, with 0.962. As to GGGGGCUACAGCAGAAGCGUCCACGUCGCGGCCCCUGUCAGAUUCUGGUGAAUCUGCGAAUUCUGCUGU, the self-cleavage stood at 0.688. As to GGGGGCUACAGCAGAAGCGUUCACGUCGCGGCCCCUGUCAGAGUCUGGUGAAUCUGCGAAUUCUGCUGU, the self-cleavage worked out at 0.757. On to GGGGGCUACAGCAGAAGCGUUCACGUCGCGGCCCCUGUCAGAUUCUGGUGAAUCUGCGAAUUCGGCUGU, for which the self-cleavage came out at 0.899. As for GGGGGCCCCAGCUGAAGCGUUCACGUCGCGGCCCCUGUCAGAUUCUGGUGAAUCUGCGAAUUCUGCUGU, the self-cleavage amounted to 0.849.

For GGGGGCCCCAGCGGAAGCGUUCACGUCGCGGCCCCUGUCAGAUUCUGGUGAAUCUGCGAAUUCUGCUGU, the self-cleavage came to 0.987.

Consider GGGGGCCCCAGCAGAAGCGUUCACGUCGCGGCCCCUGUCAGAUUCUGGUGAAUCUGCUAAUUCUGCUGU, for which the self-cleavage is 1.03.

GGGGGCCCCAGCAGAAGCGUUCACGUCGCGGCCCCUGUCAGAUUCUGGUGAAUCUGCCAAUUCUGCUGU: the self-cleavage was 0.963.

Turning to GGGGGCUACAGCAGAAGCGUUCACGGCGCGGCCCCUGUCAGAUUCUGGUGAAUCUGCGAAUUCUGCUGU, the self-cleavage was 0.762. To GGGGGCUACAGCAGAAGCGUUCACGACGCGGCCCCUGUCAGAUUCUGGUGAAUCUGCGAAUUCUGCUGU belongs 0.597; to GGGGGCCCCAGCAUAAGCGUUCACGUCGCGGCCCCUGUCAGAUUCUGGUGAAUCUGCGAAUUCUGCUGU, 0.723; to GGGGGCCCCAGCAGAAGCGUUCACGUCGCGGACCCUGUCAGAUUCUGGUGAAUCUGCGAAUUCUGCUGU, 0.784. In the case of GGGGGCCCCAGCAGAAGCGUUCAAGUCGCGGCCCCUGUCAGAUUCUGGUGAAUCUGCGAAUUCUGCUGU, the self-cleavage amounted to 0.707. To GGGGGCCCCAGCAGAAGCGUUCACGUCGCGGCCCCUGUCAGAUUCUGGUGAAUCUGCGAAUUCUCCUGU belongs 0.635. Turning to GGGGGCUACAGCAGAAGCGUUCACGUCGCGGCCCCUGUCAGAUUCUGGUGAAUCUGCGAAUUCUGCUUU, the self-cleavage stood at 0.965. As for GGGGGCUACAGCAGAAGCGUUCACGUCGCGGCCCCUGUCACAUUCUGGUGAAUCUGCGAAUUCUGCUGU, the self-cleavage amounted to 0.647.
